From patent publication US7608262

Molecular target: recombinant human TNF (human) (UniProt P01375)
Experiment: binding assays of cA2 and recombinant human TNF (format not described)

Sequence of UniProt P01375 (P01375 77-233 limits assumed): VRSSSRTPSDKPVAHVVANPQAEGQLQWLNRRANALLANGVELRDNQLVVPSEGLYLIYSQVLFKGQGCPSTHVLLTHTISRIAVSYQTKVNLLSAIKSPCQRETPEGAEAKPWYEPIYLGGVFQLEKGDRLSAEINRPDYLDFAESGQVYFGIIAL

Q: For “chimeric A2 (cA2) anti-TNF monoclonal antibody”, which Ka is on record?
A: Its Ka is 1.8e+09 M⁻¹.
